Assay [1] concerns the target human CD3 antigen on T cells (human). Nature of the assay: flow cytometry competition on human T cells, FITC-conjugated murine OKT3 as tracer.
Assay [2] shares this target. The assay can be described thus: competition with 125I-labelled mouse M291 on IL-2-activated human T cells, method of Berzofsky and Berkower.

“chimeric OKT3 IgG2 (from UniProt P01859-1) (antibody)” showed an avidity, fold compared to that of the chimeric IgG1 in assay [1] of 2 to 3 fold. This molecule also came in with a specific lysis of 51Cr-labeled K562 cells by retargeted T cell blasts (reverse lysis) with FcRII below 32%.

In the case of “humanized M291 IgG1 (from UniProt P01857-1) (antibody)”, the Ka in assay [2] was determined as 1.6e+09 M⁻¹.

B1: mouse M291 antibody (antibody, V domains shown)
VH: QVQLQQSGAELARPGASVKMSCKASGYTFISYTMHWVKQRPGQGLEWIGYINPRSGYTHYNQKLKDKATLTADKSSSSAYMQLSSLTSEDSAVYYCARSAYYDYDGFAYWGQGTLVTVSA
VL: QIVLTQSPAIMSASPGEKVTMTCSASSSVSYMNWYKQKSGTSPKRWTYDTSKLASGVPARFSGSGSGTSYSLTISSMEAEDAATYYCQQWSSNPPTFGSGTKLEIK
In assay [2], B1 had a Ka of 1.6e+09 M⁻¹.

Values taken from patent US5834597.
